In assay [1] the target is T1, Human CD93 on the cell surface (human CD93 expressing CHO cells; HUVEC, U937 and KG1a cells) (human, UniProt Q9NPY3 22-652).
T1 chain: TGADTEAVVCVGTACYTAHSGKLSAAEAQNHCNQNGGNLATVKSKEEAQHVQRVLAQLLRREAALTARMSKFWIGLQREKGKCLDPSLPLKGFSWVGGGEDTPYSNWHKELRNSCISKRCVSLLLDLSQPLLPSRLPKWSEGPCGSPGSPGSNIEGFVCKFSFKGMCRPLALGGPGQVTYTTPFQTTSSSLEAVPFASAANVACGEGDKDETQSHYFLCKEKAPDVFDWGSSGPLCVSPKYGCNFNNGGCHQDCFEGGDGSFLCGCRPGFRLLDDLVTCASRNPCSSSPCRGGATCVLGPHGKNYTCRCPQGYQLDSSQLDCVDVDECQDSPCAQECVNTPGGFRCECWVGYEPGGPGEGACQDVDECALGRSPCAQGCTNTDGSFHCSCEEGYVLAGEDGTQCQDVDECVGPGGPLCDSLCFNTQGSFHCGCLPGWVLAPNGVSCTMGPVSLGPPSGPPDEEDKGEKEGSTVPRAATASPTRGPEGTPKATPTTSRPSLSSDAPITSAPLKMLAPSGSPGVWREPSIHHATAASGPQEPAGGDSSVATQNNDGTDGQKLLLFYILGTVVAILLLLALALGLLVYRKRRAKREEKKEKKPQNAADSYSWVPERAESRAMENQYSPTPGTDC
The assay is described as follows: FACS blocking of MMRN2 binding; FIG. 45.

For assay [2], the target named is T1, Human CD93 on the cell surface (human …). The assay can be described thus: FACS blocking of hIGFBP7-His binding; HUVEC cells.

B1: h16E4 (humanized 16E4, VH4+VL6) (antibody, V domains shown)
VH: QVQLVQSGAEVKKPGASVKVSCKASGYTFTSYWMHWVRQAPGQGLEWMGEIDPSASYTYYNQKFKGRVTMTRDKSSSTVYMELSSLTSEDSAVYYCARSVYYGNKYFDVWGAGTTVTVSS
VL: DIQMTQSPSTLSASVGDRVTITCKASQSVDYAGDSYMNWYQQKPGKAPKLLIYAASNLESGVPSRFSGSGSGTEFTLTISSLQPDDFATYYCQQTNEDPRTFGGGTKLEIK
Usually IC50 stands for the concentration that gives 50% inhibition. Turning to B1, in assay [1], the IC50 came out at 225 nM.

B2: h7F3 (humanized 7F3, VH3+VL3) (antibody, V domains shown)
VH: QVQLVQSGAEVKKPGASVKVSCKASGYTFTDYEMHWVRQAPGQGLEWMGGIDPETGDTAYNQNFKGRVTMTTDTSTSTAYMELRSLTSDDTAVYYCTNYGNLYYYAMDYWGQGTSVTVSS
VL: EIVLTQSPSSLSASVGDRVTITCRASSSVSSSYLHWYQQKPGKAPKLLIYSTSNLAFGVPSRFSGSGSGTSYTFTISSLQPEDIATYYCQQYSGYPLTFGSGTKLEIK
As for B2, the IC50 in assay [2] was determined as 1 nM.
